How the values were obtained:
human CD47 (human) [1] = target: human CD47 (human) (UniProt Q08722); assay: flow cytometry, CHO-K1 cells expressing human CD47; FIG. 3
human LAG-3 (human) [2] = target: human LAG-3 (human) (UniProt P18627); assay: flow cytometry, CHO-K1 cells expressing human LAG-3; FIG. 1
human CD47 (human) [3] = target: human CD47 (human) (UniProt Q08722); assay: flow cytometry, CHO-K1 cells expressing human CD47; FIG. 4
human LAG-3 (human) [4] = target: human LAG-3 (human) (UniProt P18627); assay: flow cytometry, CHO-K1 cells expressing human LAG-3; FIG. 2

Chain of human LAG-3 (human) (P18627 23-525): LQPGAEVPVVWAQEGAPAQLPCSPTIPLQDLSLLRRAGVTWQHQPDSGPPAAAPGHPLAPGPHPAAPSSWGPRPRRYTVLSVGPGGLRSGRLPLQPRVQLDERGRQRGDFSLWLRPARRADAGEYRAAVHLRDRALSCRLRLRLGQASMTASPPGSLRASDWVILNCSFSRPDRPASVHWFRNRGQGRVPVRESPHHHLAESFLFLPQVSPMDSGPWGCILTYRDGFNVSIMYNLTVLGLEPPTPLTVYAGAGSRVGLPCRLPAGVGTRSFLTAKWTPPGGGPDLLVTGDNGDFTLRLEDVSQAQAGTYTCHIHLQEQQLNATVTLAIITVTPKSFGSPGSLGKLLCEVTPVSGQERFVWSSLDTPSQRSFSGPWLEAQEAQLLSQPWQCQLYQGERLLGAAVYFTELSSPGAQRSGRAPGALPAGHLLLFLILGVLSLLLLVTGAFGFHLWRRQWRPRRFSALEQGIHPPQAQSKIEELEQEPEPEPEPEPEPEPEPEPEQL
Chain of human CD47 (human) (Q08722 19-323): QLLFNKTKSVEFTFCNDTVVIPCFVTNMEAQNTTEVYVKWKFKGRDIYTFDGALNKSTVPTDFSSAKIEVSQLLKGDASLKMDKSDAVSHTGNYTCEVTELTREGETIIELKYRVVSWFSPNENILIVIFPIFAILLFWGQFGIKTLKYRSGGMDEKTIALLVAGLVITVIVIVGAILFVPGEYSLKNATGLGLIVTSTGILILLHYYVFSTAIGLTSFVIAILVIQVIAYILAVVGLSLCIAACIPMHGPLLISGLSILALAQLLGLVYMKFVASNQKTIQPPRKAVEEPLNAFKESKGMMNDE

Human IgG was tested, and the EC50 (human CD47 (human) [1]) was 14.4 nM, the EC50 (human LAG-3 (human) [2]) was 2.46 nM and the EC50 (human CD47 (human) [3]) was 14.4 nM. The EC50 (human LAG-3 (human) [4]) was 2.46 nM.

— patent US20220267436A1
